Read-outs that look alike come from different tables or passages of the source. Where a SMILES comes first, the peptide text is derived from it. Where no end group is shown, it is not given here. The star is where a group is joined. Oxazole(5-CO) = O=C(c1cnco1)*; Crotonyl(E) = C/C=C/C(=O)*; 2Furoyl = O=C(c1ccco1)*; Butyryl = CCCC(=O)*
T1: ENL YEATS domain (His-ENL) (Homo sapiens, UniProt Q03111)
T1 construct: (aa 1−148) was cloned in pET19b; made in house; host or cells: E. coli BL21(DE3pLysS)
T1 sequence (Q03111 1-148): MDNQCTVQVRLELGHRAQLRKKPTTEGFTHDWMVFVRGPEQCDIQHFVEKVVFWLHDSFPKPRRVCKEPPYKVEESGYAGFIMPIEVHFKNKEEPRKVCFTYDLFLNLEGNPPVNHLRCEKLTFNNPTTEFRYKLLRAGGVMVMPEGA

T2: NanoLuc-ENL YEATS expressed in HEK293T cells (Homo sapiens, UniProt Q03111)
T2 construct: The complementary DNA encoding ENL YEATS (aa 1-148) was cloned into pCDH-EF1-Nluc; expressed in transfected cells
T2 sequence (Q03111 1-148): T1 sequence (Q03111 1-148)

T3: ENL YEATS domain (His-ENL YEATS) (Homo sapiens, UniProt Q03111)
T3 construct: (aa 1−148) was cloned in pET19b; made in house; host or cells: E. coli BL21(DE3pLysS)
T3 sequence (Q03111 1-148): T1 sequence (Q03111 1-148)

T4: 6xHis-tagged ENL YEATS domain, Q03111
T4 chain: T1 sequence (Q03111 1-148)

T5: AF9 YEATS domain (human, UniProt P42568 1-138)
T5 chain: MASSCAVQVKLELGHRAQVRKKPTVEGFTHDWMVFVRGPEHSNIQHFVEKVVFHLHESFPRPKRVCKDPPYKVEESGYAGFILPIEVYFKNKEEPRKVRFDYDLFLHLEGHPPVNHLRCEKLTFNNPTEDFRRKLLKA

T6: 6xHis-tagged ENL YEATS domain (human, UniProt Q03111 1-148)
T6 chain: T1 sequence (Q03111 1-148)


Key:
[1] = target: T1, ENL YEATS domain (His-ENL); assay: Biolayer interferometry (BLI) binding to ENL YEATS
Source text: (§1) To test the inhibition potency of the two selected peptides for the ENL YEATS domain, ENL-S1 and ENL-S2 were chemically synthesized through solid-phase peptide synthesis (SPPS) and evaluated by an AlphaScreen assay. In this assay, a biotinylated H3K27cr peptide and a 6xHis-tagged ENL YEATS domain (His-ENL YEATS) were immobilized on PerkinElmer streptavidin donor and nickel-chelating (Ni-NTA) acceptor beads, respectively. The use of a His-ENL YEATS instead of the original AviSUMO-ENL YEATS construct in the assay prevents potential false positive results derived from ligands which bind to the SUMO protein but not to the ENL YEATS domain. […] We then assessed the binding affinity of two ligands for the ENL YEATS domain using biolayer interferometry (BLI). Briefly, His-ENL was immobilized onto Ni-NTA functionalized biosensors to measure the binding kinetics of target peptides at different concentrations. […] As a small peptide directly selected from a phage display library, this level of high potency was unexpected. […] However, shorter-than-10-mer linear peptides with nanomolar binding potency have rarely been directly selected from phage display libraries. One example was S2P03, a 7-mer peptide that has a KD value as 49 ± 9 nM to bind to SIRT2.[10] This peptide contained BuK and was identified also from a BuK-containing phage display library using the active site-directed ligand selection technique. Taken together, the two examples confirmed that utilizing phage display libraries incorporated with a ncAA serving as a ligand for a protein target for active site-directed ligand selection is a successful method for identifying ultrahigh potency ligands for epigenetic proteins including both enzymes and readers. For ENL-S1 and ENL-S2, their determined kon and koff values were 6.23 ± 0.07 × 10^4 M^–1 s^–1, […] and […], 5.54 ± 0.02 × 10^–3 s^–1, respectively. Compared to ENL-S2, ENL-S1 has faster binding to the ENL YEATS domain and slower release from it, indicating its potential long-term action on the ENL YEATS inhibition. […]
Biolayer Interferometry to Validate ENL Ligands:
His-ENL, His-AF9 (aa 1-149, EpiCypher), His-GAS41 (aa 15-160, EpiCypher), and YEATS2-His (aa 200-345, EpiCypher) were reconstituted in water and diluted into assay buffer (20mM Tris, 300 mM NaCl, pH 7.9) for immobilization onto Octet Ni-NTA biosensors (Sartorius). Lyophilized peptides were dissolved in DMF and diluted to designated concentrations in assay buffer. Biolayer interferometry assays were performed in 96 well plates (GreinerBio-One, polypropylene, flat-bottom) using an Octet Red96 System (Sartorius). Wells were filled with 200 μL of assay buffer, blocking buffer (assay buffer + 0.1% BSA), protein solution, peptide solution, regeneration solution, and reload solution. For immobilization, His-tagged proteins were immobilized onto Ni-NTA sensors at 20 for 600 s. Sensors were then dipped into blocking buffer for 180 s, assay […] buffer for 300 s, peptide solution for 300 s, and back to assay buffer for 300 s. If multiple samples were tested, Ni-NTA sensors can be reconditioned in regeneration (10 mM glycine, pH 1.7) solution followed by reload solution (10 mM NiCl2) for 30 and 60 s, respectively. Measurements were carried out at 30 °C. Data were analyzed within the ForteBio Data Analysis software. Data were processed by double subtracting ligand only and protein only reference wells and aligning the data to the beginning of the association. Then, global kinetic fit was performed for all sensogram curves with a 1:1 model. Steady state KD values were reported.
AlphaScreen Assay with Biotinylated-ENL-S1:
The AlphaScreen assay was carried out in 384-well plates. Manual assay setup was performed in a 40 uL reaction buffer (50 mM HEPES pH 7.4, 100 mM NaCl, 0.1% bovine serum albumin, and 0.05% CHAPS). 10 µL of varying concentrations of His-ENL YEATS (0-300 nM) and 10 µL of […]

[2] = target: T2, NanoLuc-ENL YEATS expressed in HEK293T cells; assay: ENL-NanoBRET cellular target engagement assay with tracer SR-0813T; type: cell-based
Source text: For peptides developed for intracellular targets, a common concern is their cellular permeability to engage the targets. For the ENL YEATS domain that is a nuclear protein, its inhibitors will also need to translocate to the nucleus to exert their inhibition activities. […] We attached FITC to tENL-S1o to afford FITC-tENL-S1o that could be fluorescently imaged. […] Although results from this pilot study were very encouraging, the conjugated FITC could have assisted the cellular penetration process. A more accurate assay was needed for the use of unmodified peptides. In light of this, we proceeded to use a NanoBRET assay to evaluate whether our developed peptides could permeate into cells and engage the ENL YEATS domain in the cellular melieu.[46] The NanoBRET assay is an emerging cutting-edge technique that is robust and sensitive in assessing not just cellular permeability of a developed ligand but also the ligand engagement with its protein target in the cellular environment. A significant advantage of the NanoBRET assay over the fluorophore conjugation and other approaches is allowing intact ligands to be used. […] There are three components required to gauge the peptide inhibitory potency for ENL expressed in cells through NanoBRET assays: (1) an ENL YEATS-NanoLuc luciferase fusion protein, (2) a NanoLuc luciferase substrate, and (3) a fluorescent tracer that binds specifically and reversibly to the reader channel of ENL YEATS. […] The cellular potency of peptides can be determined through the decrease in BRET as test peptides engage the ENL YEATS domain and displace the tracer. […]
Meanwhile, we established a stable cell line for NanoLuc-ENL YEATS expression. The binding of SR-0813T to […] was also validated using a fluorescence polarization assay (Figure S16).
Using the developed ENL-NanoBRET assay, we then characterized the cellular potency of our developed peptidyl inhibitors. […] The apparent intracellular affinity of tENL-S1f was further evaluated by NanoBRET at various tracer concentrations (Figure 5D). […]
Fluorescence microscopy study with FITC-6AHX-tENL-S1o: […]

[3] = target: T3, ENL YEATS domain (His-ENL YEATS); assay: AlphaScreen inhibition of ENL YEATS binding to biotinylated H3K27cr peptide; details: mean ± SD, n = 3
Source text: as §1
Characterization of Selected Peptide Inhibitors
AlphaScreen Assay to Validate ENL Inhibitors:
His-ENL, His-AF9 (aa 1-149, EpiCypher), and biotinylated H3K27cr (aa 15-33, EpiCypher) were used to assay the synthesized inhibitors. The lyophilized peptide inhibitors were dissolved in DMF […]
and serially diluted into assay buffer (50 mM HEPES, 100 mM NaCl, 0.1% BSA, 0.05% CHAPS, pH 7.4) and incubated in the presence of 120 nM His-tagged protein at 37 °C for 30 minutes. 12.5 μL of biotinylated H3K27cr (400 nM) was aliquoted into a light gray 384-well Alphaplate (Perkin Elmer) and incubated at 37 °C. 12.5 μL of the inhibitor/protein solution was added to the H3K27cr solution, and incubated for 30 minutes at 37 °C. 25 μL of AlphaScreen histidine (nickel chelate) detection beads (Perkin Elmer) was added at 20 μg/mL each bead (streptavidin donor beads and nickel chelate acceptor beads), and the plate was incubated at 37 °C for 30 minutes. The plate was cooled to room temperature for 10 minutes, and then the beads were excited at 680 nm and the luminescence at 615 nm was read. […]
Biolayer […]
interferometry assays were performed in 96 well plates (GreinerBio-One, polypropylene, flat-bottom) using an Octet Red96 System (Sartorius). Wells were filled with 200 μL of assay buffer, blocking buffer (assay buffer + 0.1% BSA), protein solution, peptide solution, regeneration solution, and reload solution. For immobilization, His-tagged proteins were immobilized onto Ni-NTA sensors at 20 for 600 s. Sensors were then dipped into blocking buffer for 180 s, assay […] buffer for 300 s, peptide solution for 300 s, and back to assay buffer for 300 s. If multiple samples were tested, Ni-NTA sensors can be reconditioned in regeneration (10 mM glycine, pH 1.7) solution followed by reload solution (10 mM NiCl2) for 30 and 60 s, respectively. Measurements […]

[4] = target: T4, 6xHis-tagged ENL YEATS domain, Q03111; assay: AlphaScreen; details: chain shown with the change; n = 3; parent: 62.6 nM
AF9 YEATS domain [5] = target: T5, AF9 YEATS domain; assay: AlphaScreen or HTRF; competition: AF9 YEATS and its corresponding acylated histone peptide; test peptide varied; n = 3
AF9 YEATS domain [6] = target: T5, AF9 YEATS domain
[7] = target: T6, 6xHis-tagged ENL YEATS domain; assay: AlphaScreen or HTRF; competition: biotinylated H3K27cr peptide on streptavidin donor beads, His-ENL YEATS on nickel-chelating (Ni-NTA) acceptor beads; test peptide varied; n = 3

Molecule | IC50 [4] [µM] | fold lower potency (IC50) toward AF9 YEATS than toward ENL YEATS (AF9 YEATS domain [5]) [fold] | IC50 (AF9 YEATS domain [6]) [µM] | other results
CC(=O)N[C@H](C(=O)N[C@@H](Cc1ccc(O)cc1)C(=O)N[C@@H](CS)C(=O)N[C@@H](Cc1ccc(O)cc1)C(=O)N[C@@H](CCCCNC(=O)c1ccco1)C(N)=O)C(C)C [tENL-S1f] (Ac-VYCYK(2Furoyl)-NH2) |  |  |  | Selectivity (ENL:AF9) from BLI KD values ([1]; ratio KD,AF9 / KD,ENL): 12.0 fold; IC50 ([2]; 0.5 μM SR-0813T tracer, read-out: NanoBRET IC50): 4.1 ± 1.1 µM; IC50 ([2]; 1.0 μM SR-0813T tracer, read-out: NanoBRET IC50): 4.2 ± 1.1 µM; IC50 ([2]; 2.5 μM SR-0813T tracer, read-out: NanoBRET IC50, displacement of SR-0813T from NanoLuc-ENL): 6.4 ± 1.6 µM
CCCC(=O)NCCCC[C@H](NC(=O)[C@H](CCC(=O)O)NC(=O)[C@@H](NC(=O)[C@@H](NC(=O)[C@H](Cc1c[nH]c2ccccc12)NC(=O)[C@@H](N)Cc1c[nH]c2ccccc12)[C@@H](C)CC)[C@@H](C)CC)C(=O)NCC(N)=O [ENL-S2] (H-WWIIEK(Butyryl)G-NH2; N-terminus assumed) |  |  |  | Kd ([1]; BLI): 0.881 ± 0.009 µM; koff ([1]; BLI): 0.00554 s⁻¹; IC50 [3]: 1.22 µM
YDVACYK [ENL-S1 Y4A] | 0.718 |  |  | 
YAVYCYK [ENL-S1 D2A] | 0.0522 |  |  | 
YDVYAYK [ENL-S1 C5A] | > 2 |  |  | 
YDAYCYK [ENL-S1 V3A] | > 5 |  |  | 
ADVYCYK [ENL-S1 Y1A] | 0.247 |  |  | 
YDVYCYK(2Furoyl) [ENL-S1f] |  | 7.7 | 0.168 | IC50 [7]: 0.022 µM
YDVYCYK(Oxazole(5-CO)) [ENL-S1o] |  | 23 | 0.231 | IC50 [7]: 0.01 µM
YDVYCYK(Crotonyl(E)) [ENL-S1c] |  | 18 | 0.347 | 

Source: paper PMC11046469, “Leveraging a Phage-Encoded Noncanonical Amino Acid: A Novel Pathway to Potent and Selective Epigenetic Reader Protein Inhibitors” (ACS Central Science, 2024)
